We go through seven compounds from patent US6428781B1, “Composition of an endogenous insulin-like growth factor-II derivative” (Daiichi Pharmaceutical Co., Ltd., priority 1996, dated 2002).

Assay [1] deals with T1, rat IGFBP-3 (RBP-3 E. coli) (Rattus norvegicus, UniProt P15473).
T1 construct: made in house; host or cells: Escherichia coli (periplasm)
Put plainly: Solid-phase binding of HRP-IGF-II to immobilized IGFBP-3, competitive inhibition. To be noted: for inhibitory activity against the binding of IGF-II to IGFBP-3 (RBP-3 E. coli): final concentration of each compound 100 μg/ml, compared to the other test compounds of Table 1. As for the experimental part: A 96-well microtiter plate manufactured by Costar Corp.; 50 mM sodium phosphate buffer (pH 6.5) as a basic buffer for immuobilization; basic buffer supplemented with 0.03% Tween 20, basic buffer supplementee with 1% BSA and basic buffer supplemented with 0.25% BSA an 0.03% Tween 20 were used in the washing, blocking and binding steps, respectively. After each reaction, wells were washed twice with 400 μl/well of buffer. Horseradish peroxidase-labeled IGF-II (hereinafter “HRP-IGF-II”) was prepared using a commercially available kit (PIERCE Chemichal Company).
To the microtiter plate, RBP-3 E. coli (150 ng/ml) was added in an amount of 50 μl/well and allowed to stand overnight at 4° C. for immobilization. After blocking, 50 μl/well of HRP-IGF-II (final concentration diluted 12,000-fold) was added at 25° C. for 2 hours in the presence or absence of a test compound. Test compounds at various concentrations were added to each well in a total volume of 50 μl.
In the final step, a solution of 2,2′-azino-bis(3-ethylbenzthiazoline-6-sulfonic acid) (hereinafter “ABTS”; Kirkegaard & Perry Laboratories) was added to each well (100 μl/well) and allowed to stand at room temperature. The absorbance (O.D.) at 405 nm was measured on a plate reader (“VMAX™”, Molecular Devices).
The absorbance in the absence of a test compound is designated “B0”, and in the presence of a test compound is designated as “B”. The absorbance in the absence of both a test compound and using a non-immobilized well (a well not containing RBP-3 E. coli) is designated as nonspecific bound (NSB). The percent binding of labeled IGF-II to immobilized IGFBP-3 in the presence of a test compound is calculated from the following equation: […]
The binding reactions for each of the test compounds, was performed triplicate. The average value is plotted and the SD value is indicated with a bar (refer to FIG. 8).
Each compound was dissolved or suspended in basic buffer containing 5% methanol at a final concentration of 1 mg/ml. The resulting solution or suspension was diluted with the reaction buffer 5-fold or to a final concentration of 200 μg/ml. The final concentration of each compound at the time of measurement was 100 μg/ml.
The percent binding of IGF-II to IGFBP-3 (RBP-3 E. coli) in the presence of a test compound was calculated using the following formula:
“percent total bound (100(%))−percent actual bound (%)”=percent inhibitory activity (%) of the test specimen.
Measurements for each of the test compounds were performed twice, and the average inhibitory activity was determined.

The nature of assay [2]: Evaluation of blood lipid level (1), nonfasting SD rats. To be noted: plasma; for total glyceride concentration 6 hours after administration, compared to negative control: IGF-I 50 μg/kg s.c., anti-RBP-3 pAb #35 20 mg/head i.p.; for total glyceride concentration 6 hours after administration, compared to negative control / total cholesterol concentration 24 hours after administration, compared to negative control: [Leu27, Leu43]rIGF-II 1,000 μg/kg s.c. In kind it is in vivo. As for the experimental part: [Leu27, Leu43]rIGF-II (1,000 μg/kg) was administered, subcutaneously, to a group of nonfasting SD rats (n=3, 8 weeks old, male, average weight: 300 g, purchased from Charles River Japan).
Anti-RBP-3 pAb #35 (20 mg/head) was administered, intraperitoneally, to another group of SD rats.
As a negative control, physiological saline (500 μl/head) was administered, subcutaneously, and as a positive control group, IGF-I (50 μg/kg, 200 μg/kg) was administered, subcutaneously.
About 500 μl of blood was sequentially collected into EDTA-coated glass tubes from the caudal vein. Thirty minutes after collection, the blood was centrifuged (3,500 rpm×12 mm 25° C.), and plasma supernatant was recovered and stored at −80° C. until assayed. The total cholesterol and total triglyceride concentrations of the plasma were measured in accordance with a “Hitachi 715 model” automatic analyzer using the enzyme method of “Autocera CH02 and TG2” (each, manufactured by Daiichi Pure Chemicals Co., Ltd.).

The conditions of assay [3]: adult humans, intravenous injection, 100 μg/kg; Guler et al. 1987; cited from earlier work.
Assay [4] addresses T2, human placental IGF-I receptor (Homo sapiens, UniProt P08069).
T2 construct: human placental IGF-I receptor; from tissue; host or cells: human placenta
The assay can be described thus: IGF-I receptor radioreceptor binding assay with 125I-IGF-I. On the procedure: (§1) The [Leu27, Leu43]rIGF-II derivative described in Example 8, was characterized for its binding affinity to human placental IGF-I receptor and human placental insulin receptor using a radioreceptor assay (Le Bon, T. R., et al., J. Biol. Chem., 261, 7685 (1986); Fujita-Yamaguchi, Y., et al., J. Biol. Chem., 258, 5045 (1983)).
(§2) In the first step, ^125I-IGF (or ^125I-insulin) (Amersham International plc) in an amount of 2×10^4 cpm was incubated with various amounts of the IGF receptor or the insulin receptor, to determine an amount of the receptor to which 50% of ^125I-IGF (or ^125I-insulin) binds.
(§3) [Leu27, Leu43]rIGF-II was added at various concentrations to aliquots of the mixture containing the determined amount of the receptor and ^125I-IGF (or ^125I-insulin) (2×10^4 cpm). The final volume of the reaction mix was brought to […] using a 50 mM Tris-HCl buffer (pH 7.4) containing 0.1% BSA and 0.075% Triton X-100, and allowed to incubate overnight at 4° C. […] The reaction mixture was centrifuged (3000 rpm×30 min, 4° C.), the supernatant decanted, and the cpm value for the pellet was measured by gamma counting. […]
(§4) The cpm value in the absence of a receptor is designated as nonspecific bound (NSB). […] The percent binding to a receptor is calculated from the following equation: […]

Assay [5] addresses T3, human placental insulin receptor (Homo sapiens, UniProt P06213).
T3 construct: human placental insulin receptor; from tissue; host or cells: human placenta
Put plainly: Insulin receptor radioreceptor binding assay with 125I-insulin. On the procedure: as §1, §2, §3, §4

Assay [6] addresses IGF-II/cation-independent mannose-6-phosphate receptor (Homo sapiens, UniProt P11717). To be noted: Sakano et al. 1991; cited from earlier work.
Assay [7] addresses IGF-I receptor (Homo sapiens, UniProt P08069). The following applies: Sakano et al. 1991; cited from earlier work.
Assay [8] addresses insulin receptor (Homo sapiens, UniProt P06213). The following applies: Sakano et al. 1991; cited from earlier work.
Assay [9] deals with cell proliferation. The following applies: Sakano et al. 1991; cited from earlier work.
The target in assay [10] is IGFBP-3 (Homo sapiens, UniProt P17936). The following applies: Bach et al. 1993; cited from earlier work.
IGFBP-3, sequence (P17936 28-291, species assumed): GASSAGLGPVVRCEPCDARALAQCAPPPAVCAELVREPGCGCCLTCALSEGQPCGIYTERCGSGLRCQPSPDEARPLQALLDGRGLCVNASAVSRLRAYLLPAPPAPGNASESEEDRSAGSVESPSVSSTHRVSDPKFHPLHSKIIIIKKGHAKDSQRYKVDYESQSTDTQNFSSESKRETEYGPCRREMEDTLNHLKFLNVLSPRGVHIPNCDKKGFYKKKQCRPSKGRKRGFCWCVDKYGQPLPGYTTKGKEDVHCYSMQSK

T1 sequence (P15473 28-292): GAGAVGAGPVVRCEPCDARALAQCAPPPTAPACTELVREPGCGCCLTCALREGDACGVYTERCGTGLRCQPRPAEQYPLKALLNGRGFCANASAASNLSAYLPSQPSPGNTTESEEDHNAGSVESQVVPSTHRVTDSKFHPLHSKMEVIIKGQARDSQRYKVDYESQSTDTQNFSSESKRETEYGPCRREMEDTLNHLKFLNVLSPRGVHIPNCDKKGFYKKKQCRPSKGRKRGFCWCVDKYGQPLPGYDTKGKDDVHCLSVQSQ
IGF-II/cation-independent mannose-6-phosphate receptor, sequence (P11717 41-2491): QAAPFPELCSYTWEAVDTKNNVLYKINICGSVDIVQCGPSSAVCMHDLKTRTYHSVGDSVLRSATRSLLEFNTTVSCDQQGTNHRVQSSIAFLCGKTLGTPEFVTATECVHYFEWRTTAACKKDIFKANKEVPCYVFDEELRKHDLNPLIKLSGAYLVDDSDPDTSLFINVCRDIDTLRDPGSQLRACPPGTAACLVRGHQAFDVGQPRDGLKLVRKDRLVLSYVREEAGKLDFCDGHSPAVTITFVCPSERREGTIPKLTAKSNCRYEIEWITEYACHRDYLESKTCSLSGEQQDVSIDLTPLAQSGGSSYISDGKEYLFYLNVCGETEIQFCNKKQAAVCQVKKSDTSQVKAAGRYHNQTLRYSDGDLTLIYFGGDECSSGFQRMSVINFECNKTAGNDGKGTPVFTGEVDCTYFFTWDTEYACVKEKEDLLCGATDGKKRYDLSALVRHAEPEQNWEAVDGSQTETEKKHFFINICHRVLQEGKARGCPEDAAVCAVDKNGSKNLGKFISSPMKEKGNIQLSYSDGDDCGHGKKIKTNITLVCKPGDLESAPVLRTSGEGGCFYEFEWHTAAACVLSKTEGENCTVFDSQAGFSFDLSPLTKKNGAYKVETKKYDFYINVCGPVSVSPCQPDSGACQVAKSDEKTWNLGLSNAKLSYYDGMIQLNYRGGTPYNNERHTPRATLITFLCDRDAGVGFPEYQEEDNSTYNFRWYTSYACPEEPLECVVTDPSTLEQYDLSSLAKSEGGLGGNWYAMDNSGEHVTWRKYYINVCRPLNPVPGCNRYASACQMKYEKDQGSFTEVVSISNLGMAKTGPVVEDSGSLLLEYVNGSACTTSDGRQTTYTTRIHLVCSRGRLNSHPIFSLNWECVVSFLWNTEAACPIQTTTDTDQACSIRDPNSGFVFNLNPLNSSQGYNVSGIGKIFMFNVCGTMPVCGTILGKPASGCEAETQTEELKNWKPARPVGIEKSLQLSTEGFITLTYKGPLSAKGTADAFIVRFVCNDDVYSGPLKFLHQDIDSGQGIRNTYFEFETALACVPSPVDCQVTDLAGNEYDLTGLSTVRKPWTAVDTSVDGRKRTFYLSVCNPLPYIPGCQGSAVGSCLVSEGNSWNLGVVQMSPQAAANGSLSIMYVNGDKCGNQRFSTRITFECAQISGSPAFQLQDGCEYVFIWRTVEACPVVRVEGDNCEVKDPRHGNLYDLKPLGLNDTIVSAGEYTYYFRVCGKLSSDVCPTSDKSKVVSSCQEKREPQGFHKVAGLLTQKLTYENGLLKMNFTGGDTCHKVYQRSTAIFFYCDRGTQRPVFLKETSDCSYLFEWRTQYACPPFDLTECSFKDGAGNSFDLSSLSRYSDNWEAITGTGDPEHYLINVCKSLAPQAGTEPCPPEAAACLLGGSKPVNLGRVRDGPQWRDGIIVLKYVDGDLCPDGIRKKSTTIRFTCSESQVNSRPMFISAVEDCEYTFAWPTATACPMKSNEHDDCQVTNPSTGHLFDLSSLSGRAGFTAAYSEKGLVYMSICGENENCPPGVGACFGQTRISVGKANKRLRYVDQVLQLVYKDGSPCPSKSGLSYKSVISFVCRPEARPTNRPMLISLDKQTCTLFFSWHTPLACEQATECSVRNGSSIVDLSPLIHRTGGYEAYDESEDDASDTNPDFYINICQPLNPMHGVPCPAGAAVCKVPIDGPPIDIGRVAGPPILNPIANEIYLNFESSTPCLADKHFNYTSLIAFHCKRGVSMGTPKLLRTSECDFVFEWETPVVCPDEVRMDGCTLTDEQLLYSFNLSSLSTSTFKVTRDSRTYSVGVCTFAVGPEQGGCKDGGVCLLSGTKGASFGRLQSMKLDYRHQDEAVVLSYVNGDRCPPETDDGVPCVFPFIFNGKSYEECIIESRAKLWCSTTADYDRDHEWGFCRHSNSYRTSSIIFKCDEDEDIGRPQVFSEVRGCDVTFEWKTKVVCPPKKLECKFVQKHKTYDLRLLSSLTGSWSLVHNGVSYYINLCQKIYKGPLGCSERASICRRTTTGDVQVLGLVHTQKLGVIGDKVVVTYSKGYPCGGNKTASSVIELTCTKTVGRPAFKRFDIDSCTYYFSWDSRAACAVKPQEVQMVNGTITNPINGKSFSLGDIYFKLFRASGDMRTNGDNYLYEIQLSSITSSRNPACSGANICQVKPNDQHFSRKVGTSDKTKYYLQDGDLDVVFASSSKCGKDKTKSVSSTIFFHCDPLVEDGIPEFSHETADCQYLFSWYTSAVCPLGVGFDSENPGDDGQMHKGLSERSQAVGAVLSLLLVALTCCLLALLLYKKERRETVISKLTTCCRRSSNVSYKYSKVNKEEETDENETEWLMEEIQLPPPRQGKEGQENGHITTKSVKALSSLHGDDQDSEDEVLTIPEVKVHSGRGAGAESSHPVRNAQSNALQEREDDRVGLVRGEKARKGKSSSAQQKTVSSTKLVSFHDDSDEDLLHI

Regarding `O=c1oc2c(O)c(O)cc3c(=O)oc4c(O)c(O)cc1c4c23` [Compound 27, Ellagic acid], in [1], the “inhibitory activity against the binding of IGF-II to IGFBP-3 (RBP-3 E. coli)” value (from here on “inhibitory activity against the binding”) is “potent inhibitory activity”.
For `CC[C@@]1(O)C[C@H](O[C@H]2C[C@H](N(C)C)[C@H](O[C@H]3C[C@H](O)[C@H](O[C@H]4CCC(=O)[C@H](C)O4)[C@H](C)O3)[C@H](C)O2)c2c(cc3c(c2O)C(=O)c2c(O)cccc2C3=O)[C@H]1C(=O)OC` [Compound 29, Aclacinomycin A], the “inhibitory activity against the binding” value in [1] is recorded as “potent inhibitory activity”.
In the case of Heparin [Compound 31], the “inhibitory activity against the binding” value in assay [1] is “potent inhibitory activity”.
On to “IGF-I: Human IGF-I purchased from GroPep Pty. Ltd.; positive control”, for which, in assay [2], the “total glyceride concentration 6 hours after administration, compared to negative control” value is “significantly decreased”. In addition, in [2] (IGF-I 200 μg/kg s.c.), the “total cholesterol concentration 6 hours after administration, compared to negative control” value is “significantly decreased” and the “total cholesterol concentration 24 hours after administration, compared to negative control” value is listed as “significantly decreased”. In assay [3], the blood glucose levels result is “lowering of blood glucose levels” and the “time of lowest blood glucose level after injection” value was 20 min.
On to “[Leu27, Leu43]rIGF-II: human IGF-II derivative; tyrosine at residue 27 and valine at residue 43 each replaced with leucine”, for which the “affinity for IGFBP-3” value in [1] was “has affinity for IGFBP-3”. In addition, the “inhibition of the binding of IGF (labeled IGF-II) and immobilized IGFBP-3” value in assay [1] (procedure of Example 10) is “at concentrations similar to those seen for IGF-II”. In assay [4], the “affinity for / binding to the IGF-I receptor” value is reported as “little or no binding” and the “affinity for the IGF-I receptor, as % of that for IGF-I” value lay within 1 to 2%. Besides, in assay [5], the “affinity for / binding to the insulin receptor” value is given as “little or no binding” and the “affinity for the insulin receptor, as % of that for insulin” value was in the range of 1 to 2%. In [2], the “total glyceride concentration 6 hours after administration, compared to negative control” value was “tendency toward lowering”. Besides, the “total cholesterol concentration 24 hours after administration, compared to negative control” value in assay [2] (IGF-I 200 μg/kg s.c.) is “significant decrease”.
“[Leu 27] rIGF-II: human IGF-II derivative with a single amino acid substitution (Leu at position 27), from the literature”: in assay [6], the “binding to the IGF-II/cation-independent mannose-6-phosphate receptor” value is given as “bind”. In addition, the “binding to the IGF-I receptor” value in [7] was “almost no binding”. In assay [8], the “binding to the insulin receptor” value was “almost no binding”. The “effect on cell proliferation” value in assay [9] is “significantly lowered effect”. Also, in assay [10], the “binding to IGFBP-3 compared to wild type” value is given as “almost similar to the wild type”.
On to “[Leu 43] rIGF-II: human IGF-II derivative with a single amino acid substitution (Leu at position 43), from the literature”, for which the “binding to the IGF-II/cation-independent mannose-6-phosphate receptor” value in assay [6] is listed as “bind”. For the same compound, in assay [7], the “binding to the IGF-I receptor” value is “almost no binding”. In addition, the “binding to the insulin receptor” value in assay [8] is “almost no binding”. The “effect on cell proliferation” value in assay [9] is “significantly lowered effect”. Besides, in assay [10], the “binding to IGFBP-3 compared to wild type” value was “almost similar to the wild type”.
